The values below come from article PMC12637021, “Talin–tensin3 interactions regulate fibrillar adhesion formation and tensin3 phase separation” (The Journal of Cell Biology, 2025).

Assay [1] deals with U2OS TNS3KO cells. Kind of assay: α5 integrin-positive FBs, rescue of TNS3KO cells. Type of assay: cell-based, human. To be noted: vs mCh-TNS3-WT; FN-coated, overnight; SNAKA51 antibody; n = 37 (WT) and 47 (L702E) cells. How it is done: (§1) Cells were fixed in 4% paraformaldehyde (PFA, Sigma-Aldrich), which had been prewarmed to 37°C for 15 min before being washed three times with PBS. For immunofluorescence staining, cells were permeabilized with 0.5% Triton X-100 (Sigma-Aldrich) at room temperature for 5 min before being washed three times with PBS. Blebbistatin (Tocris Bioscience) was diluted in dimethyl sulfoxide (Sigma-Aldrich) and used at a final concentration of 50 μM. […]
(§2) Analysis of cell adhesion sites, FN fibrils, and LLPS condensates was performed using FIJI/ImageJ (version 1.54f) software ([Schindelin et al., 2012]). […] Prior to adhesion quantification, the images were background-subtracted using a rolling ball algorithm, followed by thresholding of adhesion sites and Analyse Particles functions in FIJI/ImageJ to quantify adhesions. Adhesion sites with sizes between 0.4 and 10 μm^2 were counted, except for adhesions in blebbistatin-treated cells, which were counted with sizes between 0.2 and 4 μm^2. […]

Assay [2] concerns NIH3T3 cells. The assay can be described thus: adhesion stability under blebbistatin, NIH3T3 cells. Type of assay: cell-based, mouse. Particulars: blebbistatin 50 µM, 60 min; n = 64 (WT), 49 (L702E), 62 (ΔPTB), 71 (Cterm) cells. How it is done: as §1, §2
The test system of assay [3] is active β1 integrin, U2OS TNS3KO cells. Kind of assay: β1 integrin-positive adhesions, U2OS TNS3KO cells. To be noted: vs TNS3-WT; FN-coated; 9EG7. In kind it is cell-based, human. How it is done:
as §1, §2

For assay [4], the system named is NIH3T3 cells. The assay can be described thus: tensin3 condensate formation, NIH3T3 cells. In kind it is cell-based, mouse. How it is done:
To establish a correlation between tensin3 expression and condensation formation, a maximum intensity Z-projection was performed on Z-stack images of NIH3T3 cells (step depth 0.2 μm). The integrated fluorescence intensity was measured by normalizing the mean pixel intensity of each cell to the average of all values in cells expressing mCh-TNS3. To measure the condensate coverage in NIH3T3 cells, the images were background-subtracted (rolling ball) and then thresholded. This was followed by the Analyse Particles function in FIJI/ImageJ to select round condensate structures (circularity 0.7–1.0) ([Bussi et al., 2023]; [Dumelie et al., 2024]) with a size larger than 0.1 μm^2. The same settings were applied to quantify the number of condensates in NIH3T3 and HFF cells.
The percentage of NIH3T3 cells transfected with mCh-TNS3 that form phase-separated condensates was quantified manually in images (610 × 499 μm) acquired with a 20× objective. To quantify the mean radius (R) of the condensates, the area covered by the condensates was divided by the number of condensates for each cell to obtain the mean size (A) of the condensates, followed by the formula of R = √(A/3.14).

In assay [5] the test system is U2OS TNS3KO cells. Kind of assay: adhesion stability under blebbistatin, U2OS TNS3KO cells. Type of assay: cell-based, human. To be noted: blebbistatin 50 µM. How it is done: Cells were fixed in 4% paraformaldehyde (PFA, Sigma-Aldrich), which had been prewarmed to 37°C for 15 min before being washed three times with PBS. For immunofluorescence staining, cells were permeabilized with 0.5% Triton X-100 (Sigma-Aldrich) at room temperature for 5 min before being washed three times with PBS. Blebbistatin (Tocris Bioscience) was diluted in dimethyl sulfoxide (Sigma-Aldrich) and used at a final concentration of 50 μM. The following primary antibodies were diluted in 1% bovine serum albumin (BSA, Sigma-Aldrich): mouse anti-α5 integrin (SNAKA51, 1:100, NBP2-50146; Novus Biologicals), rat anti-β1 integrin (9EG7, 1:200; 553715; BD Biosciences), mouse anti-FN (IST-9, 1:100, ab6328; Abcam), rabbit anti-tensin3 (1:200, HPA055338; Atlas), mouse anti-EEA1 (1:500, 68065-1-IG; Proteintech), mouse anti-LAMP1 (1:200, ab320851; Abcam), mouse anti-paxillin (349, 1:400, mab3060; Sigma-Aldrich), rabbit anti-talin1 (1:200, 82856-4-RR; Proteintech), mouse anti-vinculin (hVin1, 1:500, V9264; Sigma-Aldrich), rabbit anti-KANK2 (1:100, HPA015643; Sigma-Aldrich), rabbit anti-kindlin2 (1:100, 11453-1-AP; Proteintech), rabbit anti-GIT1 (1:200, 26247-1-AP; Proteintech), mouse anti-phosphotyrosine (4G10, 1:200, 05-321X; Sigma-Aldrich), rabbit anti-G3BP1 (1:600, 13057-2-AP; Proteintech), rabbit anti-TDP43 (1:400, 10782-2-AP; Proteintech), and rabbit anti-GIGYF1 (1:400, ab121784; Abcam). […]
as §2

The test system of assay [6] is NIH3T3 cells. Kind of assay: FRAP of GFP-TNS3 in adhesions. In kind it is cell-based, mouse. To be noted: vs TNS3-WT; 37°C; n = 27 (WT) and 26 (L702E) adhesions. The procedure: Transfected NIH3T3 cells were incubated in prewarmed DMEM medium at 37°C for 1 h to equilibrate prior to imaging. FRAP experiments were performed using a spinning disk confocal microscope as described above. Slidebook software (version 6.0.3, 3I) was used to set up the experiment. Regions of interest (ROIs) were manually adjusted to the shape of adhesion. A 488-nm laser was used at 100% power to bleach one to three adhesion ROIs per cell. Three prebleach images were acquired, followed by one image every 10 s for 3 min after bleach. Time-lapse images were analyzed using FIJI/ImageJ software ([Schindelin et al., 2012]) to obtain the intensity values of three control unbleached control ROIs and bleached ROIs over time. Values were background-subtracted, and measurements were corrected with the control values of the unbleached ROIs to compensate for any overall fluorescence loss. Intensity values were then normalized to the first postbleach value; normalized data were fitted to a one-phase association model Y=Y0+(Plateau-Y0)*(1-exp(-K*x)) using GraphPad Prism 10 software. Coefficients of the curve fit were extracted and transformed to generate the mobile fraction and halftime of recovery.

B1: TNS3-L702E: tensin3 carrying the L702E point mutation that blocks the interaction with talin (protein, UniProt Q68CZ2 1-1445, looked up, variant L702E)
Tensin-3: MEEGHGLDLTYITERIIAVSFPAGCSEESYLHNLQEVTRMLKSKHGDNYLVLNLSEKRYDLTKLNPKIMDVGWPELHAPPLDKMCTICKAQESWLNSNLQHVVVIHCRGGKGRIGVVISSYMHFTNVSASADQALDRFAMKKFYDDKVSALMQPSQKRYVQFLSGLLSGSVKMNASPLFLHFVILHGTPNFDTGGVCRPFLKLYQAMQPVYTSGIYNVGPENPSRICIVIEPAQLLKGDVMVKCYHKKYRSATRDVIFRLQFHTGAVQGYGLVFGKEDLDNASKDDRFPDYGKVELVFSATPEKIQGSEHLYNDHGVIVDYNTTDPLIRWDSYENLSADGEVLHTQGPVDGSLYAKVRKKSSSDPGIPGGPQAIPATNSPDHSDHTLSVSSDSGHSTASARTDKTEERLAPGTRRGLSAQEKAELDQLLSGFGLEDPGSSLKEMTDARSKYSGTRHVVPAQVHVNGDAALKDRETDILDDEMPHHDLHSVDSLGTLSSSEGPQSAHLGPFTCHKSSQNSLLSDGFGSNVGEDPQGTLVPDLGLGMDGPYERERTFGSREPKQPQPLLRKPSVSAQMQAYGQSSYSTQTWVRQQQMVVAHQYSFAPDGEARLVSRCPADNPGLVQAQPRVPLTPTRGTSSRVAVQRGVGSGPHPPDTQQPSPSKAFKPRFPGDQVVNGAGPELSTGPSPGSPTLDIDQSIEQENRLILELDPTFEPIPTHMNALGSQANGSVSPDSVGGGLRASSRLPDTGEGPSRATGRQGSSAEQPLGGRLRKLSLGQYDNDAGGQLPFSKCAWGKAGVDYAPNLPPFPSPADVKETMTPGYPQDLDIIDGRILSSKESMCSTPAFPVSPETPYVKTALRHPPFSPPEPPLSSPASQHKGGREPRSCPETLTHAVGMSESPIGPKSTMLRADASSTPSFQQAFASSCTISSNGPGQRRESSSSAERQWVESSPKPMVSLLGSGRPTGSPLSAEFSGTRKDSPVLSCFPPSELQAPFHSHELSLAEPPDSLAPPSSQAFLGFGTAPVGSGLPPEEDLGALLANSHGASPTPSIPLTATGAADNGFLSHNFLTVAPGHSSHHSPGLQGQGVTLPGQPPLPEKKRASEGDRSLGSVSPSSSGFSSPHSGSTISIPFPNVLPDFSKASEAASPLPDSPGDKLVIVKFVQDTSKFWYKADISREQAIAMLKDKEPGSFIVRDSHSFRGAYGLAMKVATPPPSVLQLNKKAGDLANELVRHFLIECTPKGVRLKGCSNEPYFGSLTALVCQHSITPLALPCKLLIPERDPLEEIAESSPQTAANSAAELLKQGAACNVWYLNSVEMESLTGHQAIQKALSITLVQEPPPVSTVVHFKVSAQGITLTDNQRKLFFRRHYPVNSVIFCALDPQDRKWIKDGPSSKVFGFVARKQGSATDNVCHLFAEHDPEQPASAIVNFVSKVMIGSPKKV
modifications: mCherry or GFP tag
As to B1, the “reduction in centrally located α5 integrin-positive FBs” value in assay [1] turned out to be 55%. Also, the “construct-positive adhesions after blebbistatin” value in assay [2] is “mostly disappear”. Moreover, the “reduction of adhesion-promoting effect (β1 integrin-positive adhesions)” value in assay [3] came out at 57%. Also, the “Spearman's r, expression level vs condensate coverage” value in assay [4] (n = 181 cells (WT), 168 cells (L702E)) is recorded as 0.9013. Further, the “fold increase in number of condensates” value in assay [4] (vs TNS3-WT, condensates >0.1 μm^2, circularity 0.7–1, n = 68 (WT) and 100 (L702E) cells) was found to be 2.2 fold. The condensate size result in assay [4] (vs TNS3-WT, mean radius) was “larger”. Further, the “subcellular localization of construct under blebbistatin” value in assay [5] was “almost exclusively found in the LLPS condensates in the cytoplasm”. In assay [6], the “halftime of recovery (FRAP)” value was “significantly higher” and the “mobile fraction (FRAP)” value is listed as “significantly higher”.
